This note sets out measurements from patent US20200339959A1 (Memorial Sloan Kettering, published 2020).

One experiment has as its target T1, Flag-tagged human IRF3 (human, UniProt Q14653 1-427).
T1 construct: also called transcription factor IRF3; not shown: Flag tag
T1 sequence: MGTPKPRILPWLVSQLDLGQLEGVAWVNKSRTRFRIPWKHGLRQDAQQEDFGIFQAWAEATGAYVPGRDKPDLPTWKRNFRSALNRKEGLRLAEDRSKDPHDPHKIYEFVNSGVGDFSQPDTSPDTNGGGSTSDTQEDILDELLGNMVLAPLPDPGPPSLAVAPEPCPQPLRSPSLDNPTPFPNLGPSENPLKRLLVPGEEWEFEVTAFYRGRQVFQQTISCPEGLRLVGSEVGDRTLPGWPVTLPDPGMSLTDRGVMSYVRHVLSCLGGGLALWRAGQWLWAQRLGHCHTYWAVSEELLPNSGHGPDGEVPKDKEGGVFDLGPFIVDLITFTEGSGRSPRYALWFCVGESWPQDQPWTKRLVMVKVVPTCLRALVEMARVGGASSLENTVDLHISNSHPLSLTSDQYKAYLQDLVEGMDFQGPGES
Put plainly: co-immunoprecipitation from HEK293T lysates: IP anti-C7, blot anti-Flag.

The target in a further experiment is T2, Flag-tagged human STAT2 (human, UniProt P52630 1-851).
T2 construct: also called flag-STAT2; not shown: Flag tag
The experiment can be described thus: co-immunoprecipitation from HEK293T lysates: IP anti-HA, blot anti-Flag.

The next experiment deals with T3, Flag-tagged human STAT1 (human, UniProt P42224 1-750).
T3 construct: also called flag-STAT1; not shown: Flag tag
T3 sequence: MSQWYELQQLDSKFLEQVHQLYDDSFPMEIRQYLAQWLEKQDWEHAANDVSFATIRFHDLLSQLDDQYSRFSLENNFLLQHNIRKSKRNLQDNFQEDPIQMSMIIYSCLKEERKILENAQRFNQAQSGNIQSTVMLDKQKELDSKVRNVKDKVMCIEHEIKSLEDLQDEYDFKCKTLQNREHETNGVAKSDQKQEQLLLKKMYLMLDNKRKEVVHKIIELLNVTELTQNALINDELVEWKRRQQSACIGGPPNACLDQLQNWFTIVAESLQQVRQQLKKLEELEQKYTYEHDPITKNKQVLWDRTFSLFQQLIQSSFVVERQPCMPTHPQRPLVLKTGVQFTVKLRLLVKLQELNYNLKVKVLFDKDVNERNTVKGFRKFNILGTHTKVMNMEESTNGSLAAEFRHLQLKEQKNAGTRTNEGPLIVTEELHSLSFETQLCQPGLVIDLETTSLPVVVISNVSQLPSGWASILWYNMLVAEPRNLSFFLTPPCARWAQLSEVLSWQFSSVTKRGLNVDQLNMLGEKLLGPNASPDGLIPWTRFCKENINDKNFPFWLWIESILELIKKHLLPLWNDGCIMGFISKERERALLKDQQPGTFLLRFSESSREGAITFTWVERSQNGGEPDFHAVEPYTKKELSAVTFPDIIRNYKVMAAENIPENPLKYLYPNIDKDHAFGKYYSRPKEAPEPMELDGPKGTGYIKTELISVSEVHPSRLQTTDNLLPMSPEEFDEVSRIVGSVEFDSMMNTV
The experiment is described as above.

B1: vaccinia virus C7 protein (other)
chain: MGIQHEFDIIINGDIALRNLQLHKGDNYGCKLKIISNDYKKLKFRFIIRPDWSEIDEVKGLTVFANNYAVKVNKVDDTFYYVIYEAVIHLYNKKTEILIYSDDENELFKHYYPYISLNMISKKYKVKEENYSSPYIEHPLIPYRDYESMD
notes: also called vaccinia C7; C7L gene product
On to B1, for which the binding result with Flag-tagged human IRF3 is given as “binds”.

B2: HA-tagged vaccinia C7 (other)
chain: MGIQHEFDIIINGDIALRNLQLHKGDNYGCKLKIISNDYKKLKFRFIIRPDWSEIDEVKGLTVFANNYAVKVNKVDDTFYYVIYEAVIHLYNKKTEILIYSDDENELFKHYYPYISLNMISKKYKVKEENYSSPYIEHPLIPYRDYESMD
notes: also called C7-HA; HA-tagged C7
With B2, the binding result with Flag-tagged human STAT2 was “binds”; with Flag-tagged human STAT1, “no binding”.
